Assay results from article PMC10397247.
Where two headings read alike, the source gives them in different places.

T1: P6-AA-12HGe-A
T1 chain: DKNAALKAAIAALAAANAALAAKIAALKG

T2: P6-AA-12HGe-D
T2 chain: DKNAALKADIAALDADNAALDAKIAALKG

T3: P6-AA-12HGe-H
T3 chain: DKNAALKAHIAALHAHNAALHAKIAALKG

T4: P6-AA-12HGe-K
T4 chain: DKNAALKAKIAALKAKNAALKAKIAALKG

T5: P6-AA-12HGe-M
T5 chain: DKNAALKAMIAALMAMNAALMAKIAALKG

T6: P6-AA-12HGe-Q
T6 chain: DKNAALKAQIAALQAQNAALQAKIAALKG

T7: P6-AA-12HGe-R
T7 chain: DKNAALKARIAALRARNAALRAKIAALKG

T8: P6-AA-12HGe-S
T8 chain: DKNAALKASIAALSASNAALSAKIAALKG

T9: P6-AA-12HGe-T
T9 chain: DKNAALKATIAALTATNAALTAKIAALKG

T10: P6-AA-12HGe-W
T10 chain: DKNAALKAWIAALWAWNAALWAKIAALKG

T11: 4H3462-bN
T11 chain: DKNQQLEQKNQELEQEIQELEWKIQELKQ

T12: 4H3497-bN
T12 chain: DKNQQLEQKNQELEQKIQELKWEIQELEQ

T13: 4H3613-bN
T13 chain: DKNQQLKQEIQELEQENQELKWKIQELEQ

T14: 4H3628-bN
T14 chain: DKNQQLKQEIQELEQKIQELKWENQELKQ

T15: 4H3926-bN
T15 chain: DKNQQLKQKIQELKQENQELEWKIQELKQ

T16: 4H591-bN
T16 chain: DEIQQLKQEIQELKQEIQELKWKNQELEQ

T17: 4H626-bN
T17 chain: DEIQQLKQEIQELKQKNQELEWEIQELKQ

T18: 4H906-bN
T18 chain: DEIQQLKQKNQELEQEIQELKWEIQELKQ

T19: O8-bP
T19 chain: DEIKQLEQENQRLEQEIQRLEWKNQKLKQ

T20: 4H3010-bN
T20 chain: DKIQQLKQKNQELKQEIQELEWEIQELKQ

T21: 4H3112-bN
T21 chain: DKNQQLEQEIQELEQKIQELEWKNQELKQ

T22: 4H3427-bN
T22 chain: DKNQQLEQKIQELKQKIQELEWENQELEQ

T23: 4H346-bN
T23 chain: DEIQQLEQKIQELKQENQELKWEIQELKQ

T24: 4H4073-bN
T24 chain: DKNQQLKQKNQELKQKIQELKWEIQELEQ

T25: 4H457-bN
T25 chain: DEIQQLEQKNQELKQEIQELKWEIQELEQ

T26: 4H575-bN
T26 chain: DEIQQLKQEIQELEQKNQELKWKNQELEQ

T27: 4H683-bN
T27 chain: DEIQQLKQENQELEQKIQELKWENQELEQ

T28: 4H754-bN
T28 chain: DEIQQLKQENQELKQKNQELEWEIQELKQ

T29: 4H780-bN
T29 chain: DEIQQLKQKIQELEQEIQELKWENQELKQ

T30: 4H797-bN
T30 chain: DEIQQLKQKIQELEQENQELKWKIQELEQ

T31: 4H855-bN
T31 chain: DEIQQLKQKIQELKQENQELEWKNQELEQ

T32: 4H918-bN
T32 chain: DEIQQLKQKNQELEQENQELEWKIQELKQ

T33: 4H953-bN
T33 chain: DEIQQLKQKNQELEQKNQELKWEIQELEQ

T34: 4H968-bN
T34 chain: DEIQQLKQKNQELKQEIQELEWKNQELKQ


Legend:
P6-AA-12HGe-A = target: T1, P6-AA-12HGe-A; test: two-hybrid library CCmax; settings: mean of both orientations;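 further: natural log of median RNA to DNA barcode read ratio; higher means stronger binding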
P6-AA-12HGe-D = target: T2, P6-AA-12HGe-D; test: two-hybrid library CCmax;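 further: natural log of median RNA to DNA barcode read ratio; higher means stronger binding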
P6-AA-12HGe-H = target: T3, P6-AA-12HGe-H; test: two-hybrid library CCmax; settings: mean of both orientations;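 further: natural log of median RNA to DNA barcode read ratio; higher means stronger binding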
P6-AA-12HGe-K = target: T4, P6-AA-12HGe-K; test: two-hybrid library CCmax; settings: mean of both orientations;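 further: natural log of median RNA to DNA barcode read ratio; higher means stronger binding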
P6-AA-12HGe-M = target: T5, P6-AA-12HGe-M; test: two-hybrid library CCmax; settings: mean of both orientations
P6-AA-12HGe-Q = target: T6, P6-AA-12HGe-Q; test: two-hybrid library CCmax; settings: mean of both orientations
P6-AA-12HGe-R = target: T7, P6-AA-12HGe-R; test: two-hybrid library CCmax; settings: mean of both orientations
P6-AA-12HGe-S = target: T8, P6-AA-12HGe-S; test: two-hybrid library CCmax; settings: mean of both orientations
P6-AA-12HGe-T = target: T9, P6-AA-12HGe-T; test: two-hybrid library CCmax; settings: mean of both orientations
P6-AA-12HGe-W = target: T10, P6-AA-12HGe-W; test: two-hybrid library CCmax; settings: mean of both orientations
4H3462-bN = target: T11, 4H3462-bN; test: two-hybrid library CCNG1
4H3497-bN = target: T12, 4H3497-bN; test: two-hybrid library CCNG1
4H3613-bN = target: T13, 4H3613-bN; test: two-hybrid library CCNG1
4H3628-bN = target: T14, 4H3628-bN; test: two-hybrid library CCNG1
4H3926-bN = target: T15, 4H3926-bN; test: two-hybrid library CCNG1
4H591-bN = target: T16, 4H591-bN; test: two-hybrid library CCNG1
4H626-bN = target: T17, 4H626-bN; test: two-hybrid library CCNG1
4H906-bN = target: T18, 4H906-bN; test: two-hybrid library CCNG1
O8-bP = target: T19, O8-bP; test: two-hybrid library CCNG1
4H3010-bN = target: T20, 4H3010-bN; test: two-hybrid library CCNG1
4H3112-bN = target: T21, 4H3112-bN; test: two-hybrid library CCNG1
4H3427-bN = target: T22, 4H3427-bN; test: two-hybrid library CCNG1
4H346-bN = target: T23, 4H346-bN; test: two-hybrid library CCNG1
4H4073-bN = target: T24, 4H4073-bN; test: two-hybrid library CCNG1
4H457-bN = target: T25, 4H457-bN; test: two-hybrid library CCNG1
4H575-bN = target: T26, 4H575-bN; test: two-hybrid library CCNG1
4H683-bN = target: T27, 4H683-bN; test: two-hybrid library CCNG1
4H754-bN = target: T28, 4H754-bN; test: two-hybrid library CCNG1
4H780-bN = target: T29, 4H780-bN; test: two-hybrid library CCNG1
4H797-bN = target: T30, 4H797-bN; test: two-hybrid library CCNG1
4H855-bN = target: T31, 4H855-bN; test: two-hybrid library CCNG1
4H918-bN = target: T32, 4H918-bN; test: two-hybrid library CCNG1
4H953-bN = target: T33, 4H953-bN; test: two-hybrid library CCNG1
4H968-bN = target: T34, 4H968-bN; test: two-hybrid library CCNG1

Row | interaction score (P6-AA-12HGe-A) | interaction score (P6-AA-12HGe-D; mean of both orientations) | interaction score (P6-AA-12HGe-H) | interaction score (P6-AA-12HGe-K) | interaction score (P6-AA-12HGe-M) | interaction score (P6-AA-12HGe-Q) | interaction score (P6-AA-12HGe-R) | interaction score (P6-AA-12HGe-S) | interaction score (P6-AA-12HGe-T) | interaction score (P6-AA-12HGe-W) | Binder | also measured
1 | 0.13 | -0.685 | -1.35 | -0.748 | -0.376 | 1.15 | -1.36 | -0.593 | -0.204 | -1.7 | DENAALEARIAALRARNAALRAEIAALEG [P5-AA-12HGe-R] | –
2 | -0.307 | -1.93 | -0.445 | -0.203 | 0.0241 | 0.323 | -0.752 | -1.51 | -0.218 | -0.852 | DENAALEAYIAALYAYNAALYAEIAALEG [P5-AA-12HGe-Y] | –
3 | -0.0467 | -1.71 | -1.26 | 0.446 | -0.283 | 1.22 | 0.245 | -1.32 | -0.438 | -1.07 | DENAALEATIAALTATNAALTAEIAALEG [P5-AA-12HGe-T] | –
4 | 1.19 | -1.9 | -0.211 | 1.68 | 1.12 | 1.76 | 1.09 | 0.0975 | 1.2 | -1.08 | DENAALEAQIAALQAQNAALQAEIAALEG [P5-AA-12HGe-Q] | –
5 | -1.21 | -1.45 | -1.52 | -0.261 | -1.66 | -0.404 | -0.734 | -2.05 | -1.05 | -1.53 | DENAALEASIAALSASNAALSAEIAALEG [P5-AA-12HGe-S] | –
6 | 1.15 | – | -0.103 | 1.12 | 0.995 | 2.16 | 0.594 | -0.47 | 1.54 | -0.0463 | DENAALEAMIAALMAMNAALMAEIAALEG [P5-AA-12HGe-M] | interaction score (P6-AA-12HGe-D): -1.48
7 | -0.131 | -1.67 | -1.46 | -2.03 | 0.011 | 0.162 | -1.34 | -0.198 | -0.564 | -1.05 | DENAALEAWIAALWAWNAALWAEIAALEG [P5-AA-12HGe-W] | –
8 | -1.29 | -1.79 | -1.62 | -1.26 | -1.41 | -0.057 | -1.38 | -2 | -1.15 | -2.54 | DENAALEAHIAALHAHNAALHAEIAALEG [P5-AA-12HGe-H] | –

Continued, binder first:

Row | Binder | interaction score (P6-AA-12HGe-A) | interaction score (P6-AA-12HGe-D; mean of both orientations) | interaction score (P6-AA-12HGe-H) | interaction score (P6-AA-12HGe-K) | interaction score (P6-AA-12HGe-M) | interaction score (P6-AA-12HGe-Q) | interaction score (P6-AA-12HGe-R) | interaction score (P6-AA-12HGe-S) | interaction score (P6-AA-12HGe-T) | interaction score (P6-AA-12HGe-W) | also measured
9 | DENAALEADIAALDADNAALDAEIAALEG [P5-AA-12HGe-D] | -1.85 | -1.85 | -2.35 | -0.581 | -2.09 | -1.56 | -0.833 | -2.03 | -1.98 | -1.67 | –
10 | DENAALEAEIAALEAENAALEAEIAALEG [P5-AA-12HGe-E] | 1.23 | -1.51 | 2.11 | 1.8 | 0.542 | 2.02 | 1.58 | -0.0947 | 0.892 | -0.981 | –
11 | DKNQQLEQKNQELEQEIQELEWKIQELKQ [4H3462-bN] | – | – | – | – | – | – | – | – | – | – | interaction score (4H3462-bN): 0.127; interaction score (4H3497-bN): 0.781; interaction score (4H3613-bN): -0.0373; interaction score (4H3628-bN): 0.522; interaction score (4H3926-bN): -0.216; interaction score (4H591-bN): -0.826; interaction score (4H626-bN): 0.696; interaction score (4H906-bN): -0.328; interaction score (O8-bP): -2.6
12 | DENAALEAAIAALAAANAALAAEIAALEG [P5-AA-12HGe-A] | -0.0358 | -1.87 | -0.816 | 0.623 | 0.58 | 1.38 | 0.304 | -1.02 | -0.125 | -0.644 | –
13 | DKIQQLKQKNQELKQEIQELEWEIQELKQ [4H3010-bN] | – | – | – | – | – | – | – | – | – | – | interaction score (4H3010-bN): -0.256; interaction score (4H3112-bN): -1.33; interaction score (4H3427-bN): -0.668; interaction score (4H346-bN): -1.97; interaction score (4H3926-bN): -0.546; interaction score (4H4073-bN): -1.32; interaction score (4H457-bN): -0.409; interaction score (4H575-bN): -1.47; interaction score (4H683-bN): 1.02; interaction score (4H754-bN): -1.56; interaction score (4H780-bN): -0.214; interaction score (4H797-bN): -0.873; interaction score (4H855-bN): -0.686; interaction score (4H918-bN): -0.536; interaction score (4H953-bN): -1.77; interaction score (4H968-bN): -1.13
